In the nanobody polyreactivity screen of Harvey et al. (2022):

Test: yeast display, Sf9 membrane polyspecificity reagent, FACS + sequencing; frameworks hold sequencing errors
Method in brief: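 Synthetic nanobody libraries on Saccharomyces cerevisiae BJ5465 were galactose-induced for 36–48 hours, stained 1 hour at 4 °C with 10% biotinylated, detergent-solubilized Sf9 membrane reagent and enriched on streptavidin microbeads. FACS then separated cells into low and high (top ~1%) gates by anti-HA (expression) and streptavidin (reagent binding) fluorescence. Genes were colony-PCR amplified, MiSeq 2 × 250 sequenced and CDR-length filtered. A clone's polyreactivity label is that of its gate of origin.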

Row | Sequence | polyreactivity (PSR sort gate)
1 | QVQLVESGGGLVQAAGSLPLSCAASGSTLLNYAMGWYRQAPGKQSQLVAAISSSGGRTYYADSVKGRFTISRDNAKNTVYLQMNSLKPEDTAVYYCNKGLGYPKTFGYWGQGTQVTVSS | high polyreactivity
2 | QVQLVESGGGLVQAGGSLRLSCAASGRIFPYYAMGWYRQAPGKERELVAGISYSGTSTYYADSVKGRFTISRDNAKNTVYLQMNSLKPEDTAVYYCATTSWRYGYDYWGQGTQVTVSS | high polyreactivity
3 | QVQLVESGGGLVQAGGSLRLSCAASGFTFYSYAMGWYRQAPGKERELVAAISRSGGSTRYADSVKGRFTISRENAKNTVYLQMNSLKPEDTAVYYCNAGKDRAYDYWGQGTQVTVSS | high polyreactivity
4 | QVQLVESGGRLVQAGGSLRLSCAASGRIFIYNAMGWYRQAPGKERELVAAISVSGGRTYYADSVKGRFTISRDNAKNTVYLQMNSLKPEDTAVYYCNKVRVGSLRGYWGQGTQVTVSS | high polyreactivity
5 | QVQLVESGGGLVQAGGSLRLSCAASGSTFTLYAMGWYRQAPGKERELVATITGSGGSTNYADSVKGRFTISRDNAKNTVYLQMNSLKPEDTAVYYCAAYNPFYYKFDYWGQGTQVTVSS | high polyreactivity
6 | QVQLVESGGGLVQAGGSLRLSCAASGRIFYVYAMGWYRAPGKERELVASISYIGGSTYYADSVKGRFTISRDNAKNTVYLQMNSLIPEDTAVYYCATDYYGYTVSFLVASWPDDYWGQGTQVTVSS | low polyreactivity
7 | QVHLVESGGGLVQAGGSLRLSCAASGSTFAKYAMGWYRQAPRKERELDASIRLSGGSTYYADSVKGRFTISRDNAKTTVYLLMNSQKPEDTAVYYCNKQFATFYYGFDYYYWGQGTQVTVSS | low polyreactivity
8 | QVQLVESGGGLVQAGGSLRLSCAASGFTFKGNTMGWYRQAPGKERELVANITRGGTTYYADSVKGRFTISRDNAKNTVYLQMNSLKPEDTAVYYCAARNWPSRGYNYWGQGTQVTVSS | high polyreactivity
9 | QVQLEESGGGLVQAGGSLRLSCAASGSILVIYTMGWYRQAPGKERELVAGINYSGGRTYYADSVKGRFTISRDNAKNTVYLQMNSLKPEDTAVYYCSADYYFLDWYDYWGQGTQVTVSS | low polyreactivity
10 | QVQLVESGGGLVQAGGSLRLSCAASGRIFSNYAMGWYRHAPGKEREFVAAISGSGGITYYADSVKGRFTISRDNAKNTFYLQMNSLKPEDTAVYYCARRLHYVPLISYNYWGQGTQVTVSS | low polyreactivity
11 | QVQLVESGGGLVQAGGSLRLSCAASGSTFFGNAMGWYRQAPGKERELVAAITSGGSTNYADSVKGRFTISRDNAKNTVYLQMNSLKPEDTAVYYCAKPSRWGWTGFYAYDYWGQGTQVTVSS | low polyreactivity
12 | QVQLVESGGGLVQAGGSLRLSCAASGIIFFSNTMVGYRQAPGKDREFVAAITWSTGNTYYADSVKGRFTISRDNAKNTVYLQMNSLKTEDTAVYYCYAEYLVITLYGGVEFDYWGQGTQVTVSS | low polyreactivity
13 | QVQLVESGGGLVQAGGSLRLSCPASGLNFTSYAMGWYRQAPGKERELVAAITWSGSSTYYADSVKGRFTISRDNAKNTVYLQMNSLKPEDTAVYYCAAYRYGRIYRQYAYDYWGQGTQVTVSS | high polyreactivity
14 | QVQLVESGGGLVQAGGSLRLSCAASGRTFGKYAMGWYRQAPGKERELVARISRRGGTTYYADSVKGRFTISRDNAKNTVYLQMNSLKPEDTAVYYCAAGGTYGAVEEAHDSWGHGTQVTVSS | high polyreactivity
15 | QVQLVESGGGLVQAGGSLRLSCAASGSTFDYYAMGWYRQAPGKERELVAAISSGGSTNYADSVKGRFTISRDNAKNTVYLQMNSLKPEDTAVYYCAKDHAYTSAPHQYASEYYYWGQGTQVTVSS | low polyreactivity
16 | QVQLVESGGGLVQAGGSLRLSCAASGSIFDRNAMGWYRQAPGKERELVASISYSGGTTYADSVKGRFTISRDNAKNTVYLQMNSLKPEDTAVYYCNAGGVYPRFTFLEQGYEMDYWGQGTQVTVSS | low polyreactivity
17 | QVQLVESGGGLVQAGGSLRLSCAASGFTFDYNAMGWYRQAPGKDRELVAAISESGGSTYYADSVKGRFTISRDNAKNTVYLQMNSLKPEDTAVYYCPTDFPVYYDYGYWGQGTQVTVSS | high polyreactivity
18 | QVHLVESGGGLVQAGGILRLSCAASGLTFRYYTMGWYRQEPGKERELVASITIRGGSTYYADSVKGRFTISRDNAKNTVYLQMNSLKPEDTAVYYCNTRYGFSFGYWGQGTQVTVSS | high polyreactivity
19 | QVQLVESGGGLVQAGGSLRLSCAASGRIFVGYAMGWYRQAPGKERELVAAINRSGSSTYYADSVKGRFTISRDNAKNTVYLQMNSLKPEDTAVYYCNAARRQGNRYTYDYWGQGTQVTVSS | high polyreactivity
20 | QVQLVESGGGIVQAGGSLRLSCAASGFTFGLYAMGWYRQAPGKERELVAVISSSGGSTYYADSVKGRFTISRDNAKNTVYLQMNSLKPEDTAVYYCAAEWHDYKFDVTYDYWGQVTQVTVSS | low polyreactivity
21 | QVQLVESGGGLVQAGGSLRLSCAASGRTFVGYPIGWYRQAPGKESELVATITNDAITNADSVKGRFTISRDNAKNTVYLQMNSLKPEDTAVYYCNTRYSYGTAYEQYRYKALYDYWGQGTQVTVSS | low polyreactivity
22 | QVQLVESGGGLVQAGGSLRLSCAASGFIFSGNAMGWYRQAPGKERELVARIRSGDRTYYADSVKGRFTISRDNAKNTVYLQMNSLKPEDTAVYYCAAYAWYDWRSYFPILGYEYCGQGTQVTVSS | low polyreactivity

Row | Sequence | polyreactivity (PSR sort gate)
23 | QVQLVESVGGLVQAGGSLRLSCAASGFTFDENAMGWYSQAPGINYSGASTYYADSVKGRFTLSRDNAKNTVYLQMNSLKQEDTAVNYCAAEVVAQLNYWGPGTQVTVSS | low polyreactivity
24 | QVQLVESGGGLVQAGGSLRLSSAASGNIFKSYTMGWYRQAPGKERELVAAITSGGRTNYGDSVKGRFTISRDNAKNTVYLQMNSLKPEDTAVYYCNAYKVFWVSIRYKFDYWGQGTQVTVSS | high polyreactivity
25 | QVQLVESGGGLVQAGGSLRLSCAASGRILIRKAMGRSRQAPGKERELVAAINRGGGSTYYADSVKGRFTISRDNAKNTVYLQMNSLKPEDTAVYYCAADRKAGYSRVDGDYWGQGTQVTVSS | low polyreactivity
26 | QVQHVESGGGLVQAGGSLRLSCAASGRTFYNYAKGWYRQAPGKERELVAGITSCGGSTYYADSVKGRFTISRDNAKNTVYLQMNSLKPEDTAVYYCARVWPSQKHYYWGQGTQVTVSS | high polyreactivity
27 | QVQLVESGGGLVQAGGSLRLSCAASGFTFVRYVMGWSRQAPGKERELVAAISRSGGSTHYADSVKGRFTISRDNAKNTVYLQMNSLKPEDTAVYYCAAASPRWPGQGDYWGQGTQVTVSS | high polyreactivity
28 | QVQNEESGGGLVQAGGSLRLSCAASGRNFSSYAMGWYRQAPGKERELVAAISRAGGTYYADSVKGRFTISRDNAKNTVYLQMNSMKPEDTAVYYCAARQSVYGLRSDFYYWGQGTQVTVSS | high polyreactivity
29 | QVHLVESGGGLVQAGGSLRLSCAASGRTFGYYAMGWYRQAPAKERELVAAITSDGRTNYADSVKGRFTISRDNAKNTVYLQMNSLKPEDTAVYYCAAQILGTFYEYDYWGQGTQVTVSS | low polyreactivity
30 | QVQLVESGGGLVQAGGSLRLSCAASGSNFGRYAMGWYRQAPGKESELVAAINDDSGRTYYADTVKGRFTISRDNAKNTVYLQMNSLKPEDTAVYYCAAYRISQGYSTYNYWGQGTQVTVSS | high polyreactivity
31 | QVQLQESGGGLVQEGGSLRLSCAESGNISPQADMGWYRQAPGKERELVASIGTGGTTNYADSVTGRFTISRDNAKNTVYLQMNSLKPDDTAFYYCAAVRYEYNPYDYWGQGTQVTVSS | low polyreactivity
32 | QVQIEESRGGLVQAGGSLRLSCAASGRIIDRYAMGWSRPAPRKERELVAAISSGGRTYYADSVKGRFTISRDNAKNTVYLQMHSLKPEDTAVYYCNAVAYSLSGYNSWGQGTQVTVSS | high polyreactivity
33 | QVQLVESGGGLVQAGGSLRLSCAASGLMLGYYAMGWYRQAPGKERELGATIRRGASTYYADSVKGRLTISRDNAKNTVYLQMNSLKPEDTALYYCAAYGHQFQGDYNYWGPGTQVTVSS | low polyreactivity
34 | QVQLVESGGGLVQAGGSLRLSCAASGRTLGGYTMGWYRQAPGKERELVAAITTGGSTNYADSVKGRFTISRDNAKNTVYLQMNSLKPEDTAVYYCATDLVFDKRYWYDYWGQGTQVTVSS | low polyreactivity
35 | QVQLVESGGGLVQAGGSLRLSCAASGSIFARYTMGWYRQAPGKERELVARITSSGGSTYYADSVKGRFTISRDNAKNTVYLQMNSLKPEDTAVYYCAARYRRYVRFQGDYWGQGTQVTVSS | high polyreactivity
36 | QVQLVESGGGLVQAGGSRRLSCAASGNTFYGYAMGWYRQAPGKERELVASITMSGDSTYYADSVKGRFTISRDNAKNTVYLQMNSLKPEYTSVYYCAGVYTYPLGYYHYTYDYWGQGTQVTVSS | low polyreactivity
37 | QVQLVESGGGLVQAGGSLRISCAASGFTFNKYAMGWYRQAPGKERELVAALTVSGSRTYYADSVKGRFTISRDNAKNTVYLQMNSLKPEDTAVYYCAARKWYYYLRPWTSVGGYYWGQGTQVTVSS | high polyreactivity
38 | QVQLVESGGGLVQAGGSLRLSCAASGRTFFEYAMGWYRQAPGKEMDLVAIITNGATTNYADSVKGRFTISRDNAKNTVYLQMNSLKPEDTAVYYCAVAKWQPRRRKYYYWGQGTQVTVSS | high polyreactivity
39 | QVQLVESGGRLVQAGGSLRLSCAASGFIFQYYTMGWYRQAPGKERELVAGISRSGGSTYYADSVKGRFTISRDNAKNTVYLQMNSLKPEDTAVYYCAAKIRTSDMGYWGQGTQVTVSS | high polyreactivity
40 | QVQLVESGGGLVQAGGSLRLSCAASGSIFRGYAMGWYRQAPGKEREFVASITWSAGRTRYADSVKGRFTISRDNAKNTVYLQMNSLKPEDTAVYYCAADHGSYWPRYDYWGQGTQVTVSS | high polyreactivity
41 | QVQLVESGGGLVQAGGSLRLSCAASGSIFGGYGMGWYRQAPGKERELVAAITSGSSTYYADSVKGRFTISRDNAKNTVYLQMNSLKPEDTAVYNCAARPYPHSAYEGDYWGRGTQVTVSS | low polyreactivity
42 | QVQLVESGGGLVQAGGSLRLSCAASGRTFKGNAMGWYRQAPGKERKLVAVITGSGGSTYYADSVKGRFTISRDNAKNTVYLQMNSLKPEDTAVYYCAAESEPIRIRERDYWGQGTHVTVSS | low polyreactivity
43 | QVQRVESGGDLVQAGGSLRLSCAASGFIYTYYAMGWYRLAPGKERDFVATINWSDGSTRYADSVKGRFTISRDNAKNTVYLQMNSLKPEDTAVYYCAKDWFNRPSGEMDYCGQGTQVTVSS | low polyreactivity
